Test results: IntAct's records for PubMed 20368419

B1: Nibrin (Homo sapiens), O60934 (parent)
chain: MWKLLPAAGPAGGEPYRLLTGVEYVVGRKNCAILIENDQSISRNHAVLTANFSVTNLSQTDEIPVLTLKDNSKYGTFVNEEKMQNGFSRTLKSGDGITFGVFGSKFRIEYEPLVACSSCLDVSGKTALNQAILQLGGFTVNNWTEECTHLVMVSVKVTIKTICALICGRPIVKPEYFTEFLKAVESKKQPPQIESFYPPLDEPSIGSKNVDLSGRQERKQIFKGKTFIFLNAKQHKKLSSAVVFGGGEARLITEENEEEHNFFLAPGTCVVDTGITNSQTLIPDCQKKWIQSIMDMLQRQGLRPIPEAEIGLAVIFMTTKNYCDPQGHPSTGLKTTTPGPSLSQGVSVDEKLMPSAPVNTTTYVADTESEQADTWDLSERPKEIKVSKMEQKFRMLSQDAPTVKESCKTSSNNNSMVSNTLAKMRIPNYQLSPTKLPSINKSKDRASQQQQTNSIRNYFQPSTKKRERDEENQEMSSCKSARIETSCSLLEQTQPATPSLWKNKEQHLSENEPVDTNSDNNLFTDTDLKSIVKNSASKSHAAEKLRSNKKREMDDVAIEDEVLEQLFKDTKPELEIDVKVQKQEEDVNVRKRPRMDIETNDTFSDEAVPESSKISQENEIGKKRELKEDSLWSAKEISNNDKLQDDSEMLPKKLLLTEFRSLVIKNSTSRNPSGINDDYGQLKNFKKFKKVTYPGAGKLPHIIGGSDLIAHHARKNTELEEWLRQEMEVQNQHAKEESLADDLFRYNPYLKRRR

Variants of: B1
Settings: with pk3cb_human PIK3CB

| effect of a mutation on the interaction | Variant |
| --- | --- |
| decreasing interaction | S661A;L662A;V663A |
| decreasing interaction | K653A;L654A;L655A;L656A |
